Experimental data reported in the supplement of paper PMC12764529.
± gives the half width of the 95% confidence interval.

Columns and labels:
[1] = folding stability dG unfold from chymotrypsin proteolysis; higher = more stable
Method in brief: (§1)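 How resistant each design was to proteolysis was captured as K50, inferred by Bayesian fitting of sequencing counts. Unfolding free energy was then derived relative to a sequence-predicted unfolded-state K50 and a shared folded-state K50, per protease or combined. Digestion used trypsin and chymotrypsin at 11 threefold-diluted concentrations plus a no-protease condition, on mini-proteins under 80 residues without cysteine in a PA-tagged cDNA display construct. Designs were kept only when AlphaFold2 dimer inter-PAE was above 15.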

[2] = folding stability dG unfold (combined trypsin and chymotrypsin); higher = more stable
Method in brief: as §1

[3] = folding stability dG unfold from trypsin proteolysis; higher = more stable
Method in brief: as §1

Sequence	folding stability dG unfold [1] [kcal/mol]	folding stability dG unfold [2] [kcal/mol]	folding stability dG unfold [3] [kcal/mol]
SAGGEEKEKLREAIRAALDEAIKEGKKIKKIVIVASPEKKEEIAKLLEEEGLLENLEIEVVSPEELKSAGGS [r16_164_TrROS_Hall]	0.665 ± 0.14	1.27 ± 0.25	1.74 ± 0.072
SAGGEERERIRRLVRELRRRGYKRITADELARLLGREITEEELEALREAGLIELEEEETVEVVLPEEESAGG [r13_188_TrROS_Hall]	4.26 ± 0.085	4.15 ± 0.14	4.02 ± 0.16
SAGGEIEIDENGFIRMTLYDPATGYKIEAEFRILPDGTIEITKIKIEPLPPPPPPKVFVLDENGELVESAGG [r13_646_TrROS_Hall]	3.1 ± 0.086	2.77 ± 0.38	3.31 ± 0.2
SAGGEIEVEVLEVDPETGEVLLKITFDAEPEVIDFLVSLGFDPEHISDDGDGKVTAIVRAPPDLTIASAGGS [r16_755_TrMRF]	3.02 ± 0.061	2.79 ± 0.09	2.21 ± 0.087
SAGGEKEEIIKKLSKYPKNYRVLLKSPDGTLYEYSSPEEVIKMPLTLPNGKEVIIVKISPEKSPKLLSAGGS [r16_680_JUSTAS]	0.836 ± 0.098	0.758 ± 0.099	0.438 ± 0.091
SAGGEKKVLIVKVEIKLINNGGEFEAEFVFPEDVTLEEILAKVKELLPPGAKAEIKIKEIKLVSEDGSAGGS [r16_393_TrMRF]	2.76 ± 0.15	3.58 ± 0.39	3.93 ± 0.18
SAGGEKLETFPFKGDDDREVTLVRFEGEDRILLLVYDPDTDKVLLIAPDAIAEIDLKTGEAKVILKKSSAGG [r13_416_TrMRF]	2.111 ± 0.016	1.98 ± 0.049	1.66 ± 0.046
SAGGEKVVLEIVLPPELENLTPEELEALKNITLPNGFKITDIELVEENGRLVIRITVDSPEAAEALLKSAGG [r13_269_TrROS_Hall]	2.23 ± 0.056	2.19 ± 0.22	2.04 ± 0.086
SAGGELENLTVEELKALLEELFPDVEVKVTVEKLPEGYYRITVEIRVRLPNGETRRFELELVIRLEDSAGGS [r16_564_TrROS_Hall]	5.36 ± 0.25	5.22 ± 0.28	4.03 ± 0.23
SAGGELPLSDITVESESPVTGGSWTVTLEVPSLGLRITVPAAELGAVAASTPGVATSLSPVSPAEPASAGGS [r16_61_JUSTAS]	0.454 ± 0.093	0.225 ± 0.091	-0.251 ± 0.11
SAGGELSEEFVKKLFENLGFEELEVVDLENKKVAYFRKGNYLVKVYDDGTIEIFDENGELVETINVDSAGGS [r8_147_TrMRF]	3.89 ± 0.053	3.48 ± 0.19	2.26 ± 0.12
SAGGELTEEQRKRLEEERRRREEEERRRQAAPVKVTVTVEFDPETGEVRVRVFNENGELVAEARFKVESAGG [r13_247_TrROS_Hall]	3.77 ± 0.14	3.17 ± 0.19	2.08 ± 0.092
SAGGEPGALSSSTYTITAPAKSVSKTVTVSYNPADGTATITFPESGKTITVPAVSDEEVLALIKEILLSAGG [r13_439_JUSTAS]	-0.67 ± 0.31	0.322 ± 0.065	0.697 ± 0.025
SAGGEPLFGGSFSAEPYRTADGRLVYIVPEVTLPNGRKARAAVIYDPSTGRPIVVLYLGDKPIVLDASAGGS [r16_766_TrMRF]	2.41 ± 0.039	2.24 ± 0.026	1.889 ± 0.017
SAGGEPVLVPVKGTFENPELGVKVEVEAYFFPEFDFALVNVKVTPYSPDGKPLEVEGTFVVSVSELLKSAGG [r13_807_TrMRF]	3.16 ± 0.086	2.75 ± 0.12	2.02 ± 0.082
SAGGERERLLTLEVEIDVPPGVSPEEIAARLAALLPPGAEIERVEIRYDPATRKITVRVVIRLPEGLSAGGS [r16_396_TrROS_Hall]	2.78 ± 0.093	3.25 ± 0.29	3.59 ± 0.25
SAGGERKVKIEVMWNPDDPNYYMISVKFPGQERQFMIDPNDPERIIEFLEDLLGPGYKVDDIEIHPFRSAGG [r13_519_TrROS]	1.61 ± 0.053	1.67 ± 0.051	1.562 ± 0.012
SAGGETIPVVMYDPSTGKELTGEIPLKEALDLLAAGKKTAFIPAGGGPVKVHIEPLPDGTVLIVAESGSAGG [r13_171_TrMRF]	0.71 ± 0.021	0.636 ± 0.045	0.576 ± 0.026
SAGGETLEVKLKNGYLLRIDLETGKVEVRPLKPVKIELKIEVKPPPVEVKLEKEIKLEKKIEVKVEFSAGGS [r16_453_TrROS_Hall]	2.51 ± 0.062	2.15 ± 0.18	1.82 ± 0.19
SAGGEVEVKEITMTAEELRELIEELKKEGYLVVIENKTGEKKVIPVKEDDLKPGDEVKIRVFKLKKPSAGGS [r16_31_TrROS_Hall]	0.691 ± 0.39	0.733 ± 0.31	0.537 ± 0.14
SAGGEVKITVEKKGDGTVTVTITVKAKSLEDLLKALESLPGVEITKVEIEKDKETNEYTIRVTIKVKPSAGG [r13_796_TrROS_Hall]	4.07 ± 0.11	3.64 ± 0.15	2.67 ± 0.068

Sequence	folding stability dG unfold [1] [kcal/mol]	folding stability dG unfold [2] [kcal/mol]	folding stability dG unfold [3] [kcal/mol]
SAGGEVRIEVEIEVDPETGTVTVRAKIERDGKLFEVEMTLRVEPEEKPEKAPEVTVTVTVVFKPEGKSAGGS [r16_108_TrROS_Hall]	2.54 ± 0.076	2.78 ± 0.34	3.01 ± 0.26
SAGGFEITEEREAVKTSPPEGPLRVEERLVIEVKSEDPEKALEEAQKETGLPVEVEVDPETGSVTITVRSAG [r5_907_JUSTAS]	0.766 ± 0.11	0.448 ± 0.18	-0.523 ± 0.56
SAGGFKIERDPEDGQVTITFPMPGFGMPFRISIPYDPNGDIDVDIEPSPGMPPHHRDMIENLARELADSAGG [r13_139_TrROS]	0.281 ± 0.43	0.562 ± 0.13	0.656 ± 0.16
SAGGFKIEYTGNYYTIELPGLKIMVNPNMGMMRIKLPGNGKKITIPVPMNNWEDMLDAVKEILKELGSAGGS [r8_447_TrROS]	2.18 ± 0.099	2.56 ± 0.26	3.17 ± 0.17
SAGGFKLKIDDIEFHDDYLVIRLKIEVPVNDQTMKFELTLIIPVPPPPPPKPPVDPEEYRDPDGKWHSAGGS [r8_234_TrROS]	2.9 ± 0.062	2.63 ± 0.24	2.19 ± 0.11
SAGGFNRKVTVRVKVPATGEEFEFEFDFEGLTLEEIKRKIKEEIKKKGIVLKPDNPVVIEITDLEEDPASAG [r5_230_JUSTAS]	3.86 ± 0.21	3.98 ± 0.33	4.13 ± 0.34
SAGGGAEELAKALAEELEKEGLIKEVEVEVRVRPDGSIEVRIKVKVEPPPPPPPVTVVRDENGEERLLSAGG [r13_957_TrROS_Hall]	0.601 ± 0.12	1.11 ± 0.31	0.972 ± 0.097
SAGGGAIVRARFPRDIPELVRAYKILEAAAPDEEVTLLLPEKPVVVVRREKVGDYFLLEVRLPEDLLSAGGS [r16_404_TrMRF]	0.546 ± 0.15	0.609 ± 0.12	0.647 ± 0.2
SAGGGALSPEEALGKPVTALVEVGGKPYLATYTLKPTPDGWLLEVTVYDPSTGTPTTRTLDWDDVEFESAGG [r13_289_TrMRF]	2.232 ± 0.022	1.87 ± 0.04	1.09 ± 0.025
SAGGGAMHTVTITDEAGNVTTFTLPTDLDTLKEKIKELFPEKKYEIKKVTRVPGNPGLTTITVKVPKDSAGG [r13_832_JUSTAS]	1.89 ± 0.064	1.68 ± 0.11	1.28 ± 0.039
SAGGGASLNSIKISKIPGLNKYKITLPTSAAPGTEVTITINNPKGKETLTFTLPVKPLPGNTVVLLLSAGGS [r8_195_JUSTAS]	1.74 ± 0.059	1.74 ± 0.066	1.46 ± 0.045
SAGGGEYKVEVVTFPDGSKVVLVTLPNGDKVALPVPVTRTVPVLDKTGPLKKPGPVEVAALVLVSSNGSAGG [r13_236_TrMRF]	1.17 ± 0.12	0.956 ± 0.076	0.636 ± 0.035
SAGGGFDLEFVTPDGRRIRVEVKRILSYDPEKGYLVMEVKVTIYHPDKPIEIDGIIVFPPGFPPGAGGSAGG [r13_823_TrMRF]	4 ± 0.17	3.85 ± 0.12	3.6 ± 0.13
SAGGGGSTTQPQQVELPGDRTATVTLHTHGDTPTATITLSEKESELGTVTVPVASTAEVAAAVAALASAGGS [r16_55_JUSTAS]	0.683 ± 0.029	0.973 ± 0.097	1.26 ± 0.028
SAGGGIVEKIKKIIKEAGYKAKVEESEDGIHIVVEAPIEAGKVLEKKIKEATGKEIKIEYVPPGKGASAGGS [r16_514_TrMRF]	3.54 ± 0.25	3.25 ± 0.16	2.21 ± 0.19
SAGGGKKNKIVAVDEEGNEIVFDIDADIDTVFEAIKKLFPNKEIEVDEVIEFEGYPDYVVVFVKIPKKSAGG [r13_832_TrMRF]	2.59 ± 0.069	2.22 ± 0.22	1.72 ± 0.14
SAGGGKPVNILIKKPNEIKIIPIPVVKIEPLESPDKLYIIFEDGYIMEFDPKTLELLSIEKVKPIEEASAGG [r13_636_TrMRF]	1.94 ± 0.066	1.69 ± 0.3	1.35 ± 0.11
SAGGGKTVVTTTPDGRTVVAAELPDGSVVAVATFPDAPVLATYNPETKTVTVAFFKGGKLVATASDSSSAGG [r13_748_TrMRF]	0.855 ± 0.11	0.837 ± 0.13	0.698 ± 0.062
SAGGGLIRDAIENNPELRELLKEGYVLYVTYPDGKSGVIEINNASASEIDDAIRAHFPGEVELEFGSSAGGS [r16_655_TrMRF]	0.389 ± 0.048	0.752 ± 0.046	1.04 ± 0.028
SAGGGMAPDTPVTVRIEITLPDGTRRVLDIPGRAGDPALLEAIAAELREEGYEVREIRPVEGRIVVASAGGS [r8_497_JUSTAS]	2.81 ± 0.08	2.53 ± 0.081	1.96 ± 0.028
SAGGGMEPKPVEVTLTIPKGTVTPEDKVPVSTIAKLLGIPEDTEVTVEKITPVPNSDTELVTLTIVTSAGGS [r16_165_JUSTAS]	0.571 ± 0.074	0.615 ± 0.12	0.412 ± 0.023
